This series has as its system MS2 coat protein. Briefly: apparent KD of MS2 coat protein; designed switch direction (-1 OFF switch, 1 ON switch): 1; higher = weaker reporter binding. The method, boiled down:
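On Illumina chips, designed RNA switches with common flanks were made by stalled E. coli RNA polymerase. Titrations with SNAP-549-labelled MS2 coat protein, doubling from 0.7 or 1.5 nM to 3 µM, were done with no input, with 200 uM small-molecule ligand, or with an oligonucleotide input. Apparent KD is the median per design over clusters, from curve fits of normalised cluster fluorescence.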

[1] abbreviates: input ligand: microRNA oligo, concentration not stated.
The mark [2] stands for this setting: Eterna round: R95, input ligand: FMN 200 uM.
The mark [3] stands for this setting: Eterna round: R95, input ligand: microRNA oligo, concentration not stated.
Where [4] appears, read: Eterna round: R95, input ligand: none.

For “GGAUGAUUGACAGGAUAUCAUUUGUAAAUUGGUUGAGAAGGGUCGAUUACUUACACGACCUGUUACAUGAGGAUCACCCAUGUU [SameState NG1 #3] (Eterna round: R96, puzzle: Same State NG 1)”, the “apparent KD of MS2 coat protein” value is, setting by setting: (input ligand: FMN 200 uM) 34.9 nM; under setting [1], 20.5 nM; (input ligand: none) 31 nM.
Consider “GGCAGGUGCAGGCUUGCUUGCACCUGGAGACAUGAGGAUCACCCAUGUUUGGGACAAGCUUUGCUCCUCGUCUUUUC [JL ViennaUCT Isusreraar mod 7] (Eterna round: R96, puzzle: Sensor for hsa-mir-208a)”, for which the “apparent KD of MS2 coat protein” value by setting is: (input ligand: FMN 200 uM) 622 nM; under setting [1], 111 nM; (input ligand: none) 775 nM.
“GGCAGGUGCAGGCUUGCUUGCACCUGGAGACAUGAGGAUCACCCAUGUUUGGGACAAGCUUUGCUCCUCGUCUUUUC [JL ViennaUCT Isusreraar mod 7] (puzzle: Sensor for hsa-mir-208a)”: the “apparent KD of MS2 coat protein” value runs as follows: under setting [2], 617 nM; under setting [3], 104 nM; under setting [4], 766 nM.
Take “GGCCUCUGUCAAGGAUAUGCUACCGUUUCGGUAGCAGAAGGUGAUCACAUGAGGAUCACCCAUGUUUAGGCCAACAGGCCCGCC (Eterna round: R96, puzzle: Same State NG 1)”: the “apparent KD of MS2 coat protein” value reads like this: (input ligand: FMN 200 uM) 1420 nM; under setting [1], 445 nM; (input ligand: none) 1070 nM.
Take “GGCUGUUAAUUAGGAUAUGGUCACAUGAGGAUCACCCAUGUAACGAUGAUACGAUGUGGUCAAGACUAGAAGGGAUCGCUAACA [SameState NG2 #71] (Eterna round: R96, puzzle: Same State NG 2)”: the “apparent KD of MS2 coat protein” value stood at 172 nM (input ligand: FMN 200 uM), 128 nM under setting [1] and 105 nM (input ligand: none).
Turning to “GGGAGAGGUACAGGAUAUGGUGAGGAUCACCCACUAGAAGGGUGCACAUGUGAAUCGGACAUGAGGAUCACCCAUGUUGGGCGU (Eterna round: R96, puzzle: Same State NG 1)”, the “apparent KD of MS2 coat protein” value by setting is: (input ligand: FMN 200 uM) 213 nM; under setting [1], 265 nM; (input ligand: none) 424 nM.
In the case of “GGGAGAGUUACAGGAUAUGGUGAGGAUUACCCACUAGAAGGGUAAACAUGUGAAUCGGACAUGAGGAUCACCCAUGUUGGGCGU (Eterna round: R96, puzzle: Same State NG 1)”, the “apparent KD of MS2 coat protein” value by setting is: (input ligand: FMN 200 uM) 162 nM; under setting [1], 160 nM; (input ligand: none) 203 nM.
For the sequence “GGUAAGAAUUAAGGAUAUUGAAUACAUAUGUUUAACAUGAGGAUCACCCAUGUGGGUUGCGGUGUCGAGAAGGUAAAUUACUAG [Mat - same State NG 2 - JL mod - D99] (Eterna round: R96, puzzle: Same State NG 2)”, the “apparent KD of MS2 coat protein” value runs as follows: (input ligand: FMN 200 uM) 281 nM; under setting [1], 179 nM; (input ligand: none) 229 nM.
Turning to “GGUAGGUUACUACCAAACAUGAGGAUCACCCAUGUAGGUGGGAAGGAUAUGGUACCUUUUAGGUACCAGAAGGUCCAUACGAUC [NGss mod of JL's mod of Fisker 2] (Eterna round: R96, puzzle: Same State NG 3)”, the “apparent KD of MS2 coat protein” value is 451 nM (input ligand: FMN 200 uM), 325 nM under setting [1] and 562 nM (input ligand: none).
On the same counts, the results for “GGUAGGUUACUACCAAACAUGAGGAUCACCCAUGUUGAUGGGAAGGAUAUGGUACCUUUUAGGUACCAGAAGGUCUACUCGAUC [NGss mod of JL's mod of Fisker 3] (Eterna round: R96, puzzle: Same State NG 3)” are 111 nM, 106 nM and 148 nM.
As for “GGUAGGUUACUACCAAUCUACAUGAGGAUCACCCAUGUGUAGGAGGAUAUGGUACCUAUUUGGUACCAGAAGGCCUGAUUAAUU [Fiskers NG3ss - 8] (Eterna round: R96, puzzle: Same State NG 3)”, the “apparent KD of MS2 coat protein” value (input ligand: FMN 200 uM) came to 115 nM, the “apparent KD of MS2 coat protein” value under setting [1] is 80.4 nM and the “apparent KD of MS2 coat protein” value (input ligand: none) was 247 nM.
On the same counts, the results for “GGUAUCGGCACAGGAUAUGCUAUCCUUUGGGUAGCAGAAGGGUGAACAUGAGGAUCACCCAUGUAGGUGCCAGGGCGUGAGCCC [JL SSNG1 1.80] (Eterna round: R96, puzzle: Same State NG 1)” are 213 nM, 56.4 nM and 149 nM.
In the case of “GGUCCAGCCUGAGCUGGACAAAAGCAUGUACAUGAGGAUCACCCAUGUCAUGUACAAGCUUUUUGCUCGUCAUAAUG [Mat - hsa-mir-208a - 99] (puzzle: Sensor for hsa-mir-208a)”, the “apparent KD of MS2 coat protein” value by setting is: under setting [2], 713 nM; under setting [3], 18.6 nM; under setting [4], 806 nM.
Take “GGUCCAGCCUGAGCUGGACAAAAGCAUGUACAUGAGGAUCACCCAUGUCAUGUACAAGCUUUUUGCUCGUCUAAAAU [Mat - hsa-mir-208a - 101] (puzzle: Sensor for hsa-mir-208a)”: the “apparent KD of MS2 coat protein” value under setting [2] worked out at 508 nM, the “apparent KD of MS2 coat protein” value under setting [3] turned out to be 15.8 nM and the “apparent KD of MS2 coat protein” value under setting [4] was determined as 629 nM.
With “GGUCCAGCCUGAGCUGGACAAAAGCAUGUACAUGAGGAUCACCCAUGUCAUGUACAAGCUUUUUGCUCGUCUAAAGA [Mat - hsa-mir-208a - 91] (puzzle: Sensor for hsa-mir-208a)”, the “apparent KD of MS2 coat protein” value is, setting by setting: under setting [2], 517 nM; under setting [3], 17.7 nM; under setting [4], 705 nM.
As to “GGUCCAGCCUGAGCUGGACAAAAGCAUGUACAUGAGGAUCACCCAUGUCAUGUACAAGCUUUUUGCUCGUCUAAAUA [Mat - hsa-mir-208a - 90] (puzzle: Sensor for hsa-mir-208a)”, the “apparent KD of MS2 coat protein” value is, setting by setting: under setting [2], 464 nM; under setting [3], 16.3 nM; under setting [4], 557 nM.
As for “GGUCCAGCCUGAGCUGGACAAAAGCAUGUACAUGAGGAUCACCCAUGUCAUGUACAAGCUUUUUGCUCGUCUAAAUU [Mat - hsa-mir-208a - 94] (puzzle: Sensor for hsa-mir-208a)”, the “apparent KD of MS2 coat protein” value runs as follows: under setting [2], 781 nM; under setting [3], 15.1 nM; under setting [4], 578 nM.
On the same counts, the results for “GGUCCAGCCUGAGCUGGACAAAAGCAUGUACAUGAGGAUCACCCAUGUCAUGUACAAGCUUUUUGCUCGUCUUAAUA [Mat - hsa-mir-208a - 89] (puzzle: Sensor for hsa-mir-208a)” are 583 nM, 15 nM and 548 nM.
With “GGUCCAGCCUGAGCUGGACAAAAGCAUGUACAUGAGGAUCACCCAUGUCAUGUAUAAGCUUUUUGCUCGUCUUAAAA [JL mod - D87 - 11] (puzzle: Sensor for hsa-mir-208a)”, the “apparent KD of MS2 coat protein” value reads like this: under setting [2], 20.4 nM; under setting [3], 10.5 nM; under setting [4], 20 nM.
On the same counts, the results for “GGUCCAGCCUGAGCUGGACAAAAGCAUGUACAUGAGGAUCACCCAUGUUCAUGUACAAGCUUUUUGCUCGUCUUAUU [salish99_208a_r3_049] (puzzle: Sensor for hsa-mir-208a)” are 560 nM, 15.8 nM and 687 nM.
As to “GGUCCAGCCUGAGCUGGACCGAAGCGUGUACAUGAGGAUCACCCAUGUCAUGUACAAGCUUUUUGCUCGUCUUAUUG [JL-shm-2.10 JL Mod] (puzzle: Sensor for hsa-mir-208a)”, the “apparent KD of MS2 coat protein” value was 149 nM under setting [2], 18.8 nM under setting [3] and 285 nM under setting [4].
In the case of “GGUCCGGCCUGAGCUGGACCGAAGCAUGUACAUGAGGAUCACCCAUGUCAUGUACAGGCUUCUUGCUCGUCUUGUUG [JL-shm-2.15 JL Mod] (puzzle: Sensor for hsa-mir-208a)”, the “apparent KD of MS2 coat protein” value runs as follows: under setting [2], 90.3 nM; under setting [3], 16.6 nM; under setting [4], 219 nM.
In the case of “GGUCGGACUACAUGAGGAUCACCCAUGUGUGCGGAAACGCCAUAGGAUAUCUGUCCGAAAAGGUCAGAGAAGGGUGAACCGACC [Fiskers NG3ss - 67] (Eterna round: R96, puzzle: Same State NG 3)”, the “apparent KD of MS2 coat protein” value by setting is: (input ligand: FMN 200 uM) 882 nM; under setting [1], 30.1 nM; (input ligand: none) 73.9 nM.
On the same counts, the results for “GGUGCAAUUAACGCCUACAUGAGGAUCACCCAUGUAUGUAGGCAGGAUAUCGUUUGCAAAGCAAACGAGAAGGGCUGUAGUACC [Mat - Same State NG 3 - JL Mod - D40] (Eterna round: R96, puzzle: Same State NG 3)” are 51.1 nM, 109 nM and 131 nM.
As to “GGUGCCAAUAAAGCCUACAUGAGGAUCACCCAUGUAUGUAGGCAGGAUAUCGUUUGCAAAGCAAACGAGAAGGGCCGAGGCACC [Mat - Same State NG 3 - JL Mod - D55] (Eterna round: R96, puzzle: Same State NG 3)”, the “apparent KD of MS2 coat protein” value turned out to be 18 nM (input ligand: FMN 200 uM), 29.3 nM under setting [1] and 39.6 nM (input ligand: none).
Consider “GGUGCCAAUAAAGCCUACAUGAGGAUCACCCAUGUAUGUAGGCAGGAUAUCGUUUGCAAAGCAAACGAGAAGGGCUGAGGCACC [Mat - Same State NG 3 - JL Mod - D52] (Eterna round: R96, puzzle: Same State NG 3)”, for which the “apparent KD of MS2 coat protein” value (input ligand: FMN 200 uM) stood at 18.4 nM, the “apparent KD of MS2 coat protein” value under setting [1] is 39.8 nM and the “apparent KD of MS2 coat protein” value (input ligand: none) was determined as 38.8 nM.

For the origin of these results see the supplement of paper PMC9170038.
